Literature values as cited in article PMC6281825.

Biological target: Complement C5 (Homo sapiens) (UniProt P01031)

Kd: 0.1 nM
Substance: eculizumab
